Like-named read-outs stand apart in the source and are kept apart here.
T1: IFN-γ receptor on human cells (no IFN-γ added) (human, UniProt P15260 18-489)
T1 construct: whole, on cells; also called receptors of U937 cells and human neutrophils, monocytes, and thymocytes
T1 sequence: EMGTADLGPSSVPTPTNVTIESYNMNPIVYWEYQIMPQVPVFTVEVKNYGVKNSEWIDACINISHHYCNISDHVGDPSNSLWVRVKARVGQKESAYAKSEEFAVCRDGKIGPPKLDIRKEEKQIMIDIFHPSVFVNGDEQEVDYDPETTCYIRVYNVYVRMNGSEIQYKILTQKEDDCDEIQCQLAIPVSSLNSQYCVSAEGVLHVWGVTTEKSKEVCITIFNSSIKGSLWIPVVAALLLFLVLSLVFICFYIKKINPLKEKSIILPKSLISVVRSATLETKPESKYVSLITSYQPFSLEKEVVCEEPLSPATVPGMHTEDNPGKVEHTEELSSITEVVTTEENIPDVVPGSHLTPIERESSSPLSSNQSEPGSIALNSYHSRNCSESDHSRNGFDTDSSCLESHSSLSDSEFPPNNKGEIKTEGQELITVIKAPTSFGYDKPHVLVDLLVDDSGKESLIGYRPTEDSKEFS

B1: IFN-γ bound to its receptor (IFN-γR-IFN-γ) on human cells (other)
chain 1: QDPYVKEAENLKKYFNAGHSDVADNGTLFLGILKNWKEESDRKIMQSQIVSFYFKLFKNFKDDQSIQKSVETIKEDMNVKFFNSNKKKRDDFEKLTNYSVTDLNVQRKAIHELIQVMAELSPAAKTGKRKRSQMLFRGRRASQ
chain 2: T1 sequence
B2: recombinant human IFN-γ (ligand)
chain: B1 chain 1

Columns and labels:
[1] = biological target: T2, LcrV68-326, N-terminally truncated LcrV (Yersinia pestis, UniProt P0C7U7 68-326)
[2] = biological target: T2, LcrV68-326, N-terminally truncated LcrV; experiment: 125I-LcrV68-326 plus unlabelled IFN-γ on U937 cells
[3] = biological target: T2, LcrV68-326, N-terminally truncated LcrV; experiment: 125I-LcrV68-326 plus unlabelled IFN-γ on human monocytes
[4] = biological target: T2, LcrV68-326, N-terminally truncated LcrV; experiment: 125I-LcrV68-326 plus unlabelled IFN-γ on human thymocytes
[5] = biological target: T2, LcrV68-326, N-terminally truncated LcrV; experiment: 125I-LcrV68-326 plus unlabelled IFN-γ on human neutrophils
[6] = biological target: T1, IFN-γ receptor on human cells (no IFN-γ …); experiment: 125I radioligand binding to U937 cells
[7] = biological target: T1, IFN-γ receptor on human cells (no IFN-γ …); experiment: 125I radioligand binding to human monocytes
[8] = biological target: T1, IFN-γ receptor on human cells (no IFN-γ …); experiment: 125I radioligand binding to human thymocytes
[9] = biological target: T1, IFN-γ receptor on human cells (no IFN-γ …); experiment: 125I radioligand binding to human neutrophils

Binder | Kd [1] | Kd [2] | Kd [3] | Kd [4] | Kd [5] | Kd [6] | Kd [7] | Kd [8] | Kd [9]
B1 | 0.016 nM | 0.8 nM | 7.2 nM | 2.4 nM | 0.92 nM |  |  |  | 
B2 |  |  |  |  |  | 0.68 nM | 0.84 nM | 0.26 nM | 0.93 nM
